The term Kd denotes the constant that tells how readily two partners part at equilibrium. Lower therefore signals tighter binding. Broadly, the stoichiometry N is a count of units in the complex or per binding partner.

This note sets out measurements from publication PMC5010500 (Journal of molecular biology, 2016).

In data set [1] the target is T1, human Keap1 Kelch domain (residues 322-624) (human, UniProt Q14145 322-624). In words: ITC.
The target of data set [2] is T1, human Keap1 Kelch domain (residues …). The data set is described as follows: native MS.
Data set [3] deals with full length human Keap1 (human, UniProt Q14145 1-624). In words: […].
Data set [4] concerns the molecule itself. The data set is described as follows: […].

T1 sequence (Q14145 322-624): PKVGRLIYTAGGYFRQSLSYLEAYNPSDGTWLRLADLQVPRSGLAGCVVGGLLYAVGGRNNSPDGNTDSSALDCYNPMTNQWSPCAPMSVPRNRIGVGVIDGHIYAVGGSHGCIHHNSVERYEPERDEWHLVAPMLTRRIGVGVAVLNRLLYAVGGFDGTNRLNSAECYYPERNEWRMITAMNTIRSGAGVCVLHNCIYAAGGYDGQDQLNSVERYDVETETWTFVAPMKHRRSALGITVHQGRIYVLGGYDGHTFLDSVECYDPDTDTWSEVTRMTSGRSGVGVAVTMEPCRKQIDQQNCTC
Sequence of full length human Keap1 (Q14145 whole entry): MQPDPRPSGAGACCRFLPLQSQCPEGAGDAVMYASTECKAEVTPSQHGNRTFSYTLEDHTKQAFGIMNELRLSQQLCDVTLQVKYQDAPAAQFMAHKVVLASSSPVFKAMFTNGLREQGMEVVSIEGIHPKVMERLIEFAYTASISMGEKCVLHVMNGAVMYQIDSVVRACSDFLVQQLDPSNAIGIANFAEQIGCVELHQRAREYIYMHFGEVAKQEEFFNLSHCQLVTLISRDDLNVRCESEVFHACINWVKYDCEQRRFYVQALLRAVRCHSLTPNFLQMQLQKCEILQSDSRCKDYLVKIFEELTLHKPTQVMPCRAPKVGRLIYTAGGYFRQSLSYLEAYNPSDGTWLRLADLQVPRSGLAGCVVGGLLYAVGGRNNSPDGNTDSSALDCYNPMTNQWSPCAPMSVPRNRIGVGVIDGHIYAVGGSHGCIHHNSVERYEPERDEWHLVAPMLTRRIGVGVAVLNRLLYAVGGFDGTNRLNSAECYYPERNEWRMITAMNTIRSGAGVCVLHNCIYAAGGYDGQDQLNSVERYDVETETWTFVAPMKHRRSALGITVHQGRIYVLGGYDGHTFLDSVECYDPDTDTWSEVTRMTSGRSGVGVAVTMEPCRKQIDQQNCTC

B1: MBP-tagged mVP24 N-terminal truncation (residues 22-253) (domain or fragment)
chain: DLNSTARWIKEPSVGGWTVKWGNFVFHIPNTGMTLLHHLKSNFVVPEWQQTRNLFSHLFKNPKSTIIEPFLALRILLGVALKDQELQQSLIPGFRSIVHMLSEWLLLEVTSAIHISPNLLGIYLTSDMFKILMAGVKNFFNKMFTLHVVNDHGKPSSIEIKLTGQQIIITRVNMGFLVEVRRIDIEPCCGETVLSESVVFGLVAEAVLREHSQMEKGQPLNLTQYMNSKIAI
Turning to B1, binding in data set [1] was characterised by a dissociation constant (Kd) of 77 ± 4 nM.

B2: MBP-tagged Marburg virus viral protein 24, wild type, full length (natural protein)
chain: MAELSTRYNLPANVTENSINLDLNSTARWIKEPSVGGWTVKWGNFVFHIPNTGMTLLHHLKSNFVVPEWQQTRNLFSHLFKNPKSTIIEPFLALRILLGVALKDQELQQSLIPGFRSIVHMLSEWLLLEVTSAIHISPNLLGIYLTSDMFKILMAGVKNFFNKMFTLHVVNDHGKPSSIEIKLTGQQIIITRVNMGFLVEVRRIDIEPCCGETVLSESVVFGLVAEAVLREHSQMEKGQPLNLTQYMNSKIAI
Consider B2, for which the “stoichiometry N” value is 1 in data set [2], 1 mVP24 per Keap1 (2:2) in data set [3] and 2 in data set [4].
